Assay results as given in article PMC10906245, “Hydrogen–Deuterium Exchange Mass Spectrometry Identifies Local and Long-Distance Interactions within the Multicomponent Radical SAM Enzyme, PqqE” (ACS Central Science, 2024).

Key:
[1] = target: PqqE in complex with PqqD (PqqDE) (Methylorubrum extorquens, UniProt P71517); test: HDX-MS, PqqDES versus PqqDE; type: binding; conditions: no PqqA, no reductant, site at RS Fe4S4 cluster (peptide 21-32)
[2] = target: PqqD (Methylorubrum extorquens) (UniProt Q49148); conditions: cited from earlier work
[3] = target: PqqE (Methylorubrum extorquens) (UniProt B7KXC6); conditions: cited from earlier work
Chain of PqqE (Methylorubrum extorquens) (B7KXC6 whole entry): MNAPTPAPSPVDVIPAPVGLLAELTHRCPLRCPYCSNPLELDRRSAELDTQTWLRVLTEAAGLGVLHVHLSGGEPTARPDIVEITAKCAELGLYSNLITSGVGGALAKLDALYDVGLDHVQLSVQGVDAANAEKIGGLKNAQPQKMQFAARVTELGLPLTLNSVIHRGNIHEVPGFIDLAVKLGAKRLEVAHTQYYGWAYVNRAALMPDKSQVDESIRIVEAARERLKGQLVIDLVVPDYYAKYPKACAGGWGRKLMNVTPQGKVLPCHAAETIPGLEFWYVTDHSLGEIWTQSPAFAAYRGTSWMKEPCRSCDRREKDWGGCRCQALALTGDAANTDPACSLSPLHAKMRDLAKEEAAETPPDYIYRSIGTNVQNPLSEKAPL

Chain of PqqD (Q49148 whole entry): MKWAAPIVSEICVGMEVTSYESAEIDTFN
Chain of PqqE in complex with PqqD (PqqDE) (Q49150 279-372): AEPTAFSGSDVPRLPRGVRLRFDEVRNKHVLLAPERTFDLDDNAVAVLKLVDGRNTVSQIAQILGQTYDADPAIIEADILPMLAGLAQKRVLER
Chain of PqqE in complex with PqqD (PqqDE) (P71517 whole entry): as the sequence (B7KXC6 whole entry) above, with S286A, Q293K counted along it

## C[S+](CC[C@H](N)C(=O)O)C[C@H]1O[C@@H](n2cnc3c(N)ncnc32)[C@H](O)[C@@H]1O (stereo partly drawn) [SAM, S-adenosylmethionine]
[1]
  HDX-MS, PqqDES versus PqqDE: When SAM was added to the PqqDE complex, we identified one type I peptide

## PqqA (from UniProt Q49148)
[2]
  Kd: 390 nM

## PqqD (from UniProt Q49148)
[3]
  Kd: 4500 nM
